# Patent US20160264651A1 (Hoffmann-La Roche, published 2016)
# Substitutions are numbered along the chain they refer to.
# T1: TNC Fn5-A1-humanA2-A3 antigen construct (human TNC A2 domain in the context of domains A1 and A3), E. … (human, UniProt P24821 991-1075; P24821 1076-1257; P24821 1258-1350, limits assumed, biotinylated)
# T1 construct: domain: fifth fibronectin type III domain (Fn5);domain: A1 and A2 domain;domain: A3 domain; Not glycosylated; also called Immob E. coli Ag
# T1 sequence (looked up): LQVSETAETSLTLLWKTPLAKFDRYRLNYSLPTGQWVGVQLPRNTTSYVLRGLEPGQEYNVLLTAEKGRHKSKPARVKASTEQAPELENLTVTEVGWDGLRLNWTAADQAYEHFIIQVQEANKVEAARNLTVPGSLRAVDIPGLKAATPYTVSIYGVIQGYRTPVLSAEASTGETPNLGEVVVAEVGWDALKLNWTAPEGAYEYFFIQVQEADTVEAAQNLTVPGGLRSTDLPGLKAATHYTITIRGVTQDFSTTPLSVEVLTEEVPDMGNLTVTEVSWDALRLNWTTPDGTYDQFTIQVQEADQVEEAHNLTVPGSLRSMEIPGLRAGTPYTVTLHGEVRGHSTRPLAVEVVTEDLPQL
# T2: TNC Fn5-A1-murineA2-A3 antigen construct (murine TNC A2 domain in the context of domains A1 and A3), E. … (human; murine, UniProt P24821 991-1075; Q80YX1 1076-1257; P24821 1258-1350, limits assumed, biotinylated)
# T2 construct: domain: fifth fibronectin type III domain (Fn5);domain: A1 and A2 domain;domain: A3 domain; also called Immob E. coli Ag
# T2 sequence (looked up): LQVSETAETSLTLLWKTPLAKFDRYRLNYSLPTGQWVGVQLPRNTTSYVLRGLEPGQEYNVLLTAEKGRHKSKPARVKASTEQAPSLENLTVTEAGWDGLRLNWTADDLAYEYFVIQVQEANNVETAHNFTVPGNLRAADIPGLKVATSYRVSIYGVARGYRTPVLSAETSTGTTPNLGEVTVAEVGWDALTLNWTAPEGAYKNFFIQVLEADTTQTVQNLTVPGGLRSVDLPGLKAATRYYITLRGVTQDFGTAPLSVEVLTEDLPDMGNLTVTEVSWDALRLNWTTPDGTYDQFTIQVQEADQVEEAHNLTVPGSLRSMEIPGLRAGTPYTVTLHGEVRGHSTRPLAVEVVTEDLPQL
# T3: E. coli-expressed human TNC A2 with C-terminal avi-tag and 6xHis-tag, biotinylated (human, biotinylated in vivo upon expression (avi-tag))
# T3 construct: Used for the selections and ELISA; also called hu TNC A2; biotinylated human TNC A2
# T3 chain: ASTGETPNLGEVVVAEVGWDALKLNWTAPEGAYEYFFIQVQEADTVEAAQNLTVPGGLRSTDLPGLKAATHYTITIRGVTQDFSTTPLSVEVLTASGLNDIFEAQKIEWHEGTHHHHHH
# B1: 2B10 anti-TNC A2 Fab fragment (parental clone 2B10) (Fab, V domains shown)
# VH: QVQLVQSGAEVKKPGSSVKVSCKASGGTFSSYAISWVRQAPGQGLEWMGGIIPIFGTANYAQKFQGRVTITADKSTSTAYMELSSLRSEDTAVYYCARLYGYAYYGAFDYWGQGTTVTVSS
# VL: DIQMTQSPSSLSASVGDRVTITCRASQGIRNDLGWYQQKPGKAPKRLIYAASSLQSGVPSRFSGGGSGTEFTLTISSLQPEDFATYYCLQNGLQPATFGQGTKVEIK
# notes: also called TNC A2 2B10 Fab fragment; Fab fragment 2B10
# B2: 2B10 anti-TNC A2 human IgG1 antibody (wild-type, non-glycoengineered) (antibody, V domains shown)
# VH: B1 VH
# VL: B1 VL
# notes: also called IgG 2B10; 2B10 human IgG
# B3: 2B10_D1A2 affinity-matured anti-TNC A2 Fab clone (Fab, V domains shown)
# VH: B1 VH
# VL: B1 VL with D32V, A50D, S52Y
# notes: From the VL sub-library; No KD is printed for this clone; also called clone 2B10_D1A2
# Tests used:
# [1] = target: T1, TNC Fn5-A1-humanA2-A3 antigen construct …; assay: SPR, Biacore T100, biotinylated antigen on streptavidin chip, Fab as analyte
# Experimental: (§1) The affinity of the TNC A2 2B10 Fab fragment as well as of the human IgG1 converted TNC A2 2B10 antibody was subsequently determined and confirmed for human, murine and cynomolgus TNC A2 domain by surface plasmon resonance using a BIACORE® T100 machine (GE Healthcare) at 25° C. For this purpose the biotinylated antigens (expressed in E. coli, antigen in context but not glycosylated) were immobilized on a streptavidin chip and the constructs were used as analytes. For immobilization the antigens were diluted with HBS-EP+ (GE Healthcare, 10 mM HEPES, 150 mM NaCl, 3 mM EDTA, 0.05% Surfactant P20, pH 7.4) to 0.1 μg/ml before injection at a flow rate of 10 μl/minute to achieve approximately 80 response units (RU) of coupled protein. The TNC A2 domain from man, mouse and cynomolgus monkey was expressed in the context of the domains A1 and A3. The antigen constructs comprising the fifth fibronectin type III domain of human TNC (Fn5), the A1 and A2 domain of either human, murine or cynomolgus TNC, and the A3 domain of human TNC (TNC Fn5-A1-human/murine/cynoA2-A3) are shown in SEQ ID NOs 99-104.
# (§2) For kinetics measurements, two-fold serial dilutions of Fab fragments (range between 1.56 nM to 100 nM) or IgG (range between 0.39 nM to 25 nM) were injected in HBS-EP+ at 25° C. at a flow rate of 50 μl/min. Association and dissociation times were 180 s and a regeneration with 10 mM glycine pH 1.5 for 60 s was performed between cycles. Association rates (kₒₙ) and dissociation rates (koff) were calculated using a simple one-to-one Langmuir binding model (BIACORE® T100 Evaluation Software version 1.1.1) by simultaneously fitting the association and dissociation sensorgrams. The equilibrium dissociation constant (KD) was calculated as the ratio koff/kₒₙ. See, e.g., Chen et al., J Mol Biol 293, 865-881 (1999)
# [2] = target: T2, TNC Fn5-A1-murineA2-A3 antigen …; assay: as above
# Experimental: as §1, §2
# [3] = target: T4, TNC Fn5-A1-cynoA2-A3 antigen construct (cynomolgus TNC A2 domain in the context of domains A1 and A3), E. … (human; cynomolgus, UniProt P24821 991-1075; P24821 1258-1350); assay: as above
# T4 construct: also called Cyno TNC; Immob E. coli Ag
# Experimental: as §1, §2
# [4] = target: T3, E. coli-expressed human TNC A2 with …; assay: ELISA, biotinylated human TNC-A2 on neutravidin plates, Fab supernatants detected by anti-Flag/HRP
# Experimental: Selections were carried out over 3 rounds using constant antigen concentrations at 100 nM. In round 2, capture of antigen:phage complexes was performed on neutravidin plates instead of streptavidin beads. Specific binders were identified by ELISA as follows using: 100 μl of 100 nM biotinylated human TNC-A2 was coated in each well of neutravidin plates. Fab-containing bacterial supernatants were added and binding Fabs were detected via their Flag-tags by using an anti-Flag/HRP secondary antibody. Once identified, clone 2B10 was bacterially expressed in a 0.5 litre culture volume, affinity purified and further characterized by SPR-analysis using BIACORE T100. See SEQ ID NOs: 56 and 60.
# [5] = target: T1, TNC Fn5-A1-humanA2-A3 antigen construct …; assay: SPR, Biacore T100, biotinylated antigen on streptavidin chip, IgG as analyte (avidity)
# Experimental: as §1, §2
# [6] = target: T2, TNC Fn5-A1-murineA2-A3 antigen …; assay: as above
# Experimental: as §1, §2
# [7] = target: T4, TNC Fn5-A1-cynoA2-A3 antigen construct …; assay: as above
# Experimental: as §1, §2
# [8] = target: T3, E. coli-expressed human TNC A2 with …; assay: selection on human TNC A2, ELISA and ProteOn screening
# Experimental: Selections were carried out against E. coli expressed human TNC A2 which was cloned upstream an avi-tag and 6×his-tag (see SEQ ID NO: 97). The antigen was biotinylated in vivo upon expression. Selections have been carried out in solution as described for the primary TNC A2 selections using decreasing concentrations of human TNC A2 ranging from 100 to 2 nM. After identification of affinity-matured clones by ELISA, secondary screenings were carried out using a ProteOn XPR36 biosensor (Biorad) and kinetic rate constants and affinities were determined analyzing affinity-purified Fab preparations on the same instrument. KD was measured by surface plasmon resonance using a ProteOn XPR36 machine (Biorad) at 25° C. with antigens immobilized on NLC sensor chips (Biorad). Briefly, recombinant antigen was diluted to 10 μg/ml in PBS/0.005% Tween-20, pH 7.4 and injected at […] for 100 to 300 s to achieve approximately 200-800 response units (RU) of coupled antigen. […] Association rates (kₒₙ) and dissociation rates (koff) were calculated using a simple one-to-one Langmuir binding model (ProteOn manager software version 2.1) by simultaneously fitting the association and dissociation sensorgrams. The equilibrium dissociation constant (KD) is calculated as the ratio koff/kₒₙ.
binder,measurement,setting,value
B1,Kd,[1],1.8 nM
same,Kd,[2],180 nM
same,Kd,[3],17 nM
same,binding result,[4],binds
B2,Kd,[5],0.29 nM
same,Kd,[6],1.9 nM
same,Kd,[7],0.21 nM
B3,binding result,[8],binds
